The term Kd denotes a measure of binding affinity in units of concentration.

To fix the notation:
B1: Peptide i5mut (control peptide) (peptide)
peptide: ASTERKWAEAARRARGAGGVTLNGAG
B2: Peptide i5_Aloop (peptide)
peptide: ASTERKWAELARRIAGAGGVTLNGFG
B3: Peptide i5_loopR (peptide)
peptide: ASTERKWAELARRIRGAGGRTLNGFG
B4: Peptide i5_loopA (peptide)
peptide: ASTERKWAELARRIRGAGGATLNGFG
B5: peptide of SEQ ID No 33 (peptide)
peptide: ASTRRKWAELARRIRGAGGVTLNGFG
B6: Peptide i5_D (peptide)
peptide: ASTERKWAELARRIRGAGGVTLDGFG
B7: Peptide i5_s3 (peptide)
peptide: ASTEEKWARLARRIRGAGGVTLNGFG
B8: peptide i1 (fragment of histone H3, α3 helix) (peptide)
peptide: GAMGTIMPKDIQLARRIRG
notes: The N-terminal GAMG comes from the cloning vector
B9: inhibitor peptide Asf1/H3-H4 of SEQ ID No 62 (peptide)
peptide: GAMGTLTPKEAELARRIRGAGGVTLNGFGASTG
B10: inhibitor peptide Asf1/H3-H4, peptide i4 (peptide)
peptide: GAMGTLTPKEAELARRIRGAGGRTLNGFG
B11: inhibitor peptide Asf1/H3-H4, peptide i4V (peptide)
peptide: GAMGTLTPKEAELARRIRGAGGVTLNGFG
B12: inhibitor peptide Asf1/H3-H4 of SEQ ID No 57 (peptide)
peptide: GAMGTRTPKEARLARRIRGAGGRTLNGFG
B13: inhibitor peptide Asf1/H3-H4 of SEQ ID No 56 (peptide)
peptide: GAMGTRTPKERRLARRIRGAGGRTLNGFG
B14: inhibitor peptide Asf1/H3-H4 of SEQ ID No 61 (peptide)
peptide: GAMGTLTPKEAELARRIRGAGGVTYDGFG
B15: inhibitor peptide Asf1/H3-H4, peptide i42V (peptide)
peptide: GAMGTITPKEAQLARRIRGAGGVTLNGFG
B16: inhibitor peptide Asf1/H3-H4, peptide i4_2 (peptide)
peptide: GAMGTITPKEAQLARRIRGAGGRTLNGFG
B17: inhibitor peptide Asf1/H3-H4, peptide RRP5-i42V (peptide)
peptide: RRPRRPRRPRRPRRPGAMGTITPKEAQLARRIRGAGGVTLNGFG
B18: inhibitor peptide Asf1/H3-H4 of SEQ ID No 52 (peptide)
peptide: GAMGLTAAEHAKRSTLTPKEAQLARRIRGAGGVTLNGFG
B19: inhibitor peptide Asf1/H3-H4, peptide RRP5-i1 (peptide)
peptide: RRPRRPRRPRRPRRPGAMGTIMPKDIQLARRIRGGCA
B20: inhibitor peptide Asf1/H3-H4, peptide RRP5-i42V-CA (peptide)
peptide: RRPRRPRRPRRPRRPGAMGTITPKEAQLARRIRGAGGVTLNGFGCA
B21: inhibitor peptide Asf1/H3-H4 of SEQ ID No 53 (peptide)
peptide: LTAAEHAKRSTLTPKEAELARRIRGAGGVTLNGFG
B22: Stabilized H3 fragment of SEQ ID No 72 (peptide)
peptide: GAMGTLTPKEAELARRIRG
B23: Stabilized H3 fragment of SEQ ID No 71 (peptide)
peptide: GAMGTITPKEAQLARRIRG
B24: inhibitor peptide Asf1/H3-H4 of SEQ ID No 39 (peptide)
peptide: GAMGTIMPKDIQLARRIRGAGASRTLYGFG
B25: inhibitor peptide Asf1/H3-H4 of SEQ ID No 73 (peptide)
peptide: GAMGTLTPKEAELARRIRGARTLNGFG
B26: inhibitor peptide Asf1/H3-H4, peptide RRP5-i5 (peptide)
peptide: RRPRRPRRPRRPRRPASTERKWAELARRIRGAGGVTLNGFGGCA
B27: inhibitor peptide Asf1/H3-H4 of SEQ ID No 74 (peptide)
peptide: GAMGTLTPKEAELARRIRGAGASGRTLNGFG
B28: inhibitor peptide Asf1/H3-H4, peptide TAT-i42V (peptide)
peptide: GRKKRRQRRRGAMGTITPKEAQLARRIRGAGGVTLNGFG
B29: inhibitor peptide Asf1/H3-H4, peptide i4_1 (peptide)
peptide: GAMGTIMPKDIQLARRIRGAGGRTLYGFG
B30: inhibitor peptide Asf1/H3-H4 of SEQ ID No 64 (peptide)
peptide: GAMGRVPPAVRKLGNSTERKWAELARRIRGAGGVTLNGFG
B31: inhibitor peptide Asf1/H3-H4 of SEQ ID No 49 (peptide)
peptide: GAMGTLTPKEAELARRIRGAGRTLNGFG
B32: inhibitor peptide Asf1/H3-H4 of SEQ ID No 54 (peptide)
peptide: LTAAEHAKRSTLTPKEAQLARRIEGAGASVTLNGFG
B33: inhibitor peptide Asf1/H3-H4 of SEQ ID No 55 (peptide)
peptide: LTAAEHAKRSTLTPKEAELARRIEGAGASVTLNGFG
B34: inhibitor peptide Asf1/H3-H4 of SEQ ID No 65 (peptide)
peptide: GAMGRVPPAVRKLGNASTERKWAELARRIRGAGGVTLNGFG
B35: inhibitor peptide Asf1/H3-H4 of SEQ ID No 44 (peptide)
peptide: GAMGTITPKEAQLARRIEGAGASVTLNGFG
B36: inhibitor peptide Asf1/H3-H4 of SEQ ID No 41 (peptide)
peptide: GAMGTITPKEAQLARRIRGAGASRTLNGFG
B37: inhibitor peptide Asf1/H3-H4 of SEQ ID No 43 (peptide)
peptide: GAMGTLTPKEAELARRIRGAGASRTLNGFG
B38: inhibitor peptide Asf1/H3-H4 of SEQ ID No 46 (peptide)
peptide: GAMGTITPKEEQLRRRIEGAGASVTLNGFG
B39: inhibitor peptide Asf1/H3-H4 of SEQ ID No 45 (peptide)
peptide: GAMGTLTPKEAELARRIEGAGASVTLNGFG
B40: inhibitor peptide Asf1/H3-H4 of SEQ ID No 63 (peptide)
peptide: GAMGTLTPKEAELARRIRGAGGVTLNGANFVSTG

T2 sequence (Q9Y294 1-156 limits assumed): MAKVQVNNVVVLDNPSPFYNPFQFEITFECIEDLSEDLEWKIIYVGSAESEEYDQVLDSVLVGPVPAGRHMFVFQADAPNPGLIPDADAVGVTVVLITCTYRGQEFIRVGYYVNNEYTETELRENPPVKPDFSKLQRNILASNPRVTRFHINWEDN

The first experiment deals with T1, human protein GST-Asf1 1-156 (human, UniProt Q9Y294 1-156).
T1 construct: range 1-156; also called GST-Asf1a; GST beads linked to Asf1; not shown: GST tag
T1 sequence (Q9Y294 1-156 limits assumed): as above
Briefly: competition on GST column: GST-Asf1 1-156 beads loaded with histones H3-H4, elution with 0, 5, 10, 50 and 100 µM peptide; released histone H3 shown by Western blot (anti-H3, anti-GST). As for the experimental part:
The human protein GST-Asf1 1-156 was produced and then incubated with GST beads (glutathione S transferase, Sigma). […] After washing with 50 mM Tris buffer pH8, 150 mM NaCl, 1 mM EDTA, 1 mM DTT, 0.5% NP40, the beads were incubated with different concentrations of peptide (0 to 1 mM) dissolved in the same buffer.
As for B1, the binding result was “no binding (tested: 100 µM)”.

Another experiment concerns the target T2, Asf1 (1-156), conserved N-terminal domain of human Asf1 (human, UniProt Q9Y294 1-156).
T2 construct: range 1-156; The ITC legend says Asf1 1-156; Recombinant, cloned in peTM30; also called Asf1a 1-156
Briefly: ITC (microcalorimetry). As to the method: (§1) All calorimetry experiments were carried out in 50 mM Tris buffer pH 7.4 at 5° C., unless otherwise indicated. Peptides were introduced in the syringe at a concentration of […], and Asf1 was added to the cuvette at a concentration of 30 μM or 10 μM. Calorimety tests were also conducted at 25° C. or in 50 mM Tris buffer 150 mM NaCl pH 7.4 to obtain more detailed information on the characteristics of the interactions studied.
In turn, B2 returned a Kd of 27 nM. This counts as double-digit nanomolar.

B3 showed a Kd of 29 nM.

In the case of B4, the affinity, expressed as Kd, was 63 nM.

Consider B5, for which the affinity, expressed as Kd, was 1330 nM.

B6 returned a Kd of 9 nM.

Regarding B7, the affinity, expressed as Kd, was 20 nM.

Consider B8, for which the Kd was 8700 nM.

The molecule B9 gave a Kd of 320 nM. Compared with the last molecule, the Kd is about 27-fold lower.

B10 yielded a Kd of 180 nM.

Take B11: binding was put at a Kd of 60 nM.

Molecule B12 had a Kd of 260 nM.

B13 gave a Kd of 30 nM.

B14: the affinity, expressed as Kd, was 100 nM.

B15 displayed a Kd of 350 nM.

Molecule B16 had a Kd of 220 nM.

With B17, the Kd turned out to be 590 nM. Compared with the last molecule, the Kd is about 2.7-fold higher.

In turn, B18 registered a Kd of 30 nM.

B19 showed a Kd of 460 nM.

B20 came in with a Kd of 420 nM. This Kd and that of the molecule before are within 1.5-fold of each other.

For the molecule B21, the Kd amounted to 60 nM.

B22 gave a Kd of 2230 nM. Compared with the last molecule, the Kd is about 37-fold higher.

Take B23: binding was put at a Kd of 1400 nM.

The molecule B24 came in with a Kd of 350 nM. Against the preceding molecule, the Kd is about 4-fold lower.

B25 came in with a Kd of 3890 nM.

B26 showed a Kd of 670 nM.

Consider B27, for which the affinity, expressed as Kd, was 1890 nM.

B28 had a Kd of 620 nM.

B29: binding was put at a Kd of 560 nM.

With B30, the Kd is 80 nM.

On to B31, for which the Kd worked out at 950 nM.

In turn, B32 had an equilibrium dissociation constant (Kd) of 120 nM.

B33 showed a Kd of 880 nM. Compared with the last molecule, the Kd is about 7.3-fold higher.

With B34, binding was characterised by a dissociation constant (Kd) of 60 nM.

For the molecule B35, the Kd was determined as 660 nM.

B36 displayed a Kd of 800 nM.

In turn, B37 showed a Kd of 350 nM.

Molecule B38 had a Kd of 420 nM. This Kd and that of the molecule before are within 1.5-fold of each other.

As to B39, the affinity, expressed as Kd, was 2000 nM. Against the preceding molecule, the Kd is about 4.8-fold higher.

For B40, the Kd worked out at 1680 nM.

In a further experiment the target is T2, Asf1 (1-156), conserved N-terminal …. Nature of the experiment: ITC (microcalorimetry); second printing of SEQ ID No 42 in a later block of the 6th table. As for the experimental part: as §1
The molecule B10 showed a Kd of 180 nM.
